Patent US20220041658A1 (PROTAGONIST THERAPEUTICS, published 2022)
Positions of bridges follow the written chain, without caps; N, C: chain ends. Non-standard residues stand in square brackets, D forms with d. Trp(7-Me) = Cc1cccc2c(C[C@H](N)C(=O)O)c[nH]c12; 2Nal = N[C@@H](Cc1ccc2ccccc2c1)C(=O)O; d2Nal = N[C@H](Cc1ccc2ccccc2c1)C(=O)O; AEF = NCCOc1ccc(C[C@H](N)C(=O)O)cc1; αMeF = C[C@](N)(Cc1ccccc1)C(=O)O; Cit = NC(=O)NCCC[C@H](N)C(=O)O; Pen = CC(C)(S)[C@H](N)C(=O)O; αMeK = C[C@](N)(CCCCN)C(=O)O; Dab = NCC[C@H](N)C(=O)O; Abu = CC[C@H](N)C(=O)O; Aib = CC(C)(N)C(=O)O; βAla = NCCC(=O)O; Sar = CNCC(=O)O

T1: interleukin-23 receptor (IL-23R) (human, UniProt Q5VWK5 24-629)
T1 sequence (looked up): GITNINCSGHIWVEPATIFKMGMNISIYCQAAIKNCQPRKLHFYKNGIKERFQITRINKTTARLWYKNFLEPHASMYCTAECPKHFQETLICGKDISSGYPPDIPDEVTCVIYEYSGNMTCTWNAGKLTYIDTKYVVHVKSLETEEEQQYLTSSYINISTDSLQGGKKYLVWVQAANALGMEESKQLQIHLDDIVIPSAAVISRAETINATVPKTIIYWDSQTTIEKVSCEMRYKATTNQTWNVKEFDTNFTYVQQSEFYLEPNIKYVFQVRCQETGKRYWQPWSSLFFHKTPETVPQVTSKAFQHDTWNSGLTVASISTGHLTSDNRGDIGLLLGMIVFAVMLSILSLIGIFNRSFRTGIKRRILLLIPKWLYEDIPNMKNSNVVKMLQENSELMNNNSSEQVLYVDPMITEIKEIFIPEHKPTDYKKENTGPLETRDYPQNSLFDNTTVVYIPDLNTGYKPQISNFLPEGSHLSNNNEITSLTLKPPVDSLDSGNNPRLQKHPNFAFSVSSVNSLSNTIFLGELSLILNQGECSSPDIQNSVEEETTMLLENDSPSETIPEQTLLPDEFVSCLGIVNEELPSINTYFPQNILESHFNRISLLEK

B1: Peptide of SEQ ID NO: 204 (peptide)
peptide: XQTXQCXXXENX
modifications: Ac-Abu-Q-T-[W(7-Me)]-Q-C-Phe[4-(2-aminoethoxy)]-[2-Nal]-[THP]-E-N-[bA]-NH2; Abu-Cys thioether
B2: Peptide of SEQ ID NO: 243 (peptide)
peptide: XNTXKXXXXKNR
modifications: Ac-[Pen]-NT-[W(7-Me)]-[Lys(Ac)]-[Pen]-Phe[4-(2-aminoethoxy)]-[2-Nal]-[a-MeLys]-[Lys(Ac)]-N-R-NH2; Pen-Pen disulfide
B3: Peptide of SEQ ID NO: 219 (peptide)
peptide: XNTXQXXXXGPX
modifications: Ac-[Pen]-NT-[W(7-Me)]-Q-[Pen]-Phe[4-(2-aminoethoxy)]-[2-Nal]-[a-MeLeu]-G-P-[bA]-NH2; Pen-Pen disulfide
B4: Peptide of SEQ ID NO: 319 (peptide)
peptide: XNTXXXXXXKNL
modifications: Ac-[Pen]-N-T-[W(7-Me)]-[Lys(trifluoropropionic)]-[Pen]-Phe[4-(2-aminoethoxy)]-[2-Nal]-[a-MeLys]-[Lys(Ac)]-N-[(D)Leu]-NH2; Pen-Pen disulfide
B5: Peptide of SEQ ID NO: 231 (peptide)
peptide: XNTXQXXXXKNX
modifications: Ac-[Pen]-NT-[W(4-Me)]-Q-[Pen]-Phe[4-(2-aminoethoxy)]-[2-Nal]-[a-MeLys]-[Lys(Ac)]-N-[bA]-NH2; Pen-Pen disulfide
B6: Peptide of SEQ ID NO: 351 (peptide)
peptide: XNTXKXXXXKNK
modifications: Ac-[Pen]-N-T-[W(2-Me)]-[Lys(Ac)]-[Pen]-Phe[4-(2-aminoethoxy)]-[2-Nal]-[a-MeLys]-[Lys(Ac)]-N-[(D)Lys]-NH2; Pen-Pen disulfide
B7: Peptide of SEQ ID NO: 222 (peptide)
peptide: XNTXQXXXXKSX
modifications: Ac-[Pen]-NT-[W(7-Me)]-Q-[Pen]-Phe[4-(2-aminoethoxy)]-[2-Nal]-[a-MeLeu]-[Lys(Ac)]-[(D)Ser]-[bA]-NH2; Pen-Pen disulfide
B8: Peptide of SEQ ID NO: 211 (peptide)
peptide: XNTXQXXXXKPX
modifications: Ac-[Pen]-NT-[W(7-Me)]-Q-[Pen]-Phe[4-(2-aminoethoxy)]-[2-Nal]-[a-MeLeu]-[Lys(Ac)]-P-[bA]-NH2; Pen-Pen disulfide
B9: Peptide of SEQ ID NO: 244 (peptide)
peptide: XNTXKXXXXKNL
modifications: Ac-[Pen]-NT-[W(7-Me)]-[Lys(Ac)]-[Pen]-Phe[4-(2-aminoethoxy)]-[2-Nal]-[a-MeLys]-[Lys(Ac)]-N-L-NH2; Pen-Pen disulfide
B10: Peptide of SEQ ID NO: 228 (peptide)
peptide: XNTXQXXXXKNX
modifications: Ac-[Pen]-NT-[W(6-Cl)]-Q-[Pen]-Phe[4-(2-aminoethoxy)]-[2-Nal]-[a-MeLys]-[Lys(Ac)]-N-[bA]-NH2; Pen-Pen disulfide
B11: Peptide of SEQ ID NO: 240 (peptide)
peptide: Ac-[Pen][Aib]T[Trp(7-Me)]Q[Pen][AEF][2Nal][αMeK]K(Ac)N[βAla]-NH2
modifications: disulfide 1-6
SMILES: CC(=O)NCCCC[C@H](NC(=O)[C@](C)(CCCCN)NC(=O)[C@H](Cc1ccc2ccccc2c1)NC(=O)[C@H](Cc1ccc(OCCN)cc1)NC(=O)[C@H]1NC(=O)[C@H](CCC(N)=O)NC(=O)[C@H](Cc2c[nH]c3c(C)cccc23)NC(=O)[C@H]([C@@H](C)O)NC(=O)C(C)(C)NC(=O)[C@@H](NC(C)=O)C(C)(C)SSC1(C)C)C(=O)N[C@@H](CC(N)=O)C(=O)NCCC(N)=O
B12: Peptide of SEQ ID NO: 220 (peptide)
peptide: XNTXQXXXXGPX
modifications: Ac-[Pen]-NT-[W(7-Me)]-Q-[Pen]-Phe[4-(2-aminoethoxy)]-[2-Nal]-[a-MeLeu]-G-[(D)Pro]-[bA]-NH2; Pen-Pen disulfide
B13: Peptide of SEQ ID NO: 338 (peptide)
peptide: XNTXKXXXXKNL
modifications: Ac-[Pen]-[(D)Asn]-T-[W(7-Me)]-[Lys(Ac)]-[Pen]-Phe[4-(2-aminoethoxy)]-[2-Nal]-[a-MeLys]-[Lys(Ac)]-N-[(D)Leu]-NH2; Pen-Pen disulfide
B14: Peptide of SEQ ID NO: 241 (peptide)
peptide: Ac-[Pen]NT[Trp(7-Me)][Aib][Pen][AEF][2Nal][αMeK]K(Ac)N[βAla]-NH2
modifications: disulfide 1-6
SMILES: CC(=O)NCCCC[C@H](NC(=O)[C@](C)(CCCCN)NC(=O)[C@H](Cc1ccc2ccccc2c1)NC(=O)[C@H](Cc1ccc(OCCN)cc1)NC(=O)[C@H]1NC(=O)C(C)(C)NC(=O)[C@H](Cc2c[nH]c3c(C)cccc23)NC(=O)[C@H]([C@@H](C)O)NC(=O)[C@H](CC(N)=O)NC(=O)[C@@H](NC(C)=O)C(C)(C)SSC1(C)C)C(=O)N[C@@H](CC(N)=O)C(=O)NCCC(N)=O
B15: Peptide of SEQ ID NO: 318 (peptide)
peptide: XNTXXXXXXKNL
modifications: not fully specified; Ac-[Pen]-N-T-[W(7-Me)]-[Lys(benzyl)]-[Pen]-Phe[4-(2-aminoethoxy)]-[2-Nal]-[a-MeLys]-[Lys(Ac)]-N-[(D)Leu]-NH2; Pen-Pen disulfide
B16: Peptide of SEQ ID NO: 237 (peptide)
peptide: XQTXQXXXXKNX
modifications: Ac-[Pen]-Q-T-[W(7-Me)]-Q-[Pen]-Phe[4-(2-aminoethoxy)]-[2-Nal]-[a-MeLys]-[Lys(Ac)]-N-[bA]-NH2; Pen-Pen disulfide
B17: Peptide of SEQ ID NO: 229 (peptide)
peptide: XNTXQXXXXKNX
modifications: Ac-[Pen]-NT-[W(4-OMe)]-Q-[Pen]-Phe[4-(2-aminoethoxy)]-[2-Nal]-[a-MeLys]-[Lys(Ac)]-N-[bA]-NH2; Pen-Pen disulfide
B18: Peptide of SEQ ID NO: 321 (peptide)
peptide: XNTXXXXXXKNL
modifications: Ac-[Pen]-N-T-[W(7-Me)]-[Lys(bAla)]-[Pen]-Phe[4-(2-aminoethoxy)]-[2-Nal]-[a-MeLys]-[Lys(Ac)]-N-[(D)Leu]-NH2; Pen-Pen disulfide
B19: Peptide of SEQ ID NO: 233 (peptide)
peptide: XNTXQXXXXKNX
modifications: Ac-[Pen]-NT-[W(2,5,7-tritBu)]-Q-[Pen]-Phe[4-(2-aminoethoxy)]-[2-Nal]-[a-MeLys]-[Lys(Ac)]-N-[bA]-NH2; Pen-Pen disulfide
B20: Peptide of SEQ ID NO: 322 (peptide)
peptide: XNTXXXXXXKNL
modifications: Ac-[Pen]-N-T-[W(7-Me)]-[Lys(Aib)]-[Pen]-Phe[4-(2-aminoethoxy)]-[2-Nal]-[a-MeLys]-[Lys(Ac)]-N-[(D)Leu]-NH2; Pen-Pen disulfide

Molecular target: T1, interleukin-23 receptor (IL-23R)
Assay: cell-based or functional assay

| Binder | pStat3 HTRF IC50 |
| --- | --- |
| Ac-[Pen]NT[Trp(7-Me)][Cit][Pen][AEF][2Nal][αMeK]K(Ac)N[Aib]R-NH2 (disulfide 1-6 (inferred)) [Peptide of SEQ ID NO: 343] | 1.43 nM |
| B1 | 1.75 nM |
| B2 | 1.87 nM |
| Ac-[Pen]AT[Trp(7-Me)]K(Ac)[Pen][AEF][2Nal][αMeK]K(Ac)N[dL]-NH2 (disulfide 1-6 (inferred)) [Peptide of SEQ ID NO: 328] | 0.78 nM |
| Ac-[Pen]RT[Trp(7-Me)]K(Ac)[Pen][AEF][2Nal][αMeK]K(Ac)N[dL]-NH2 (disulfide 1-6 (inferred)) [Peptide of SEQ ID NO: 336] | 1.49 nM |
| Ac-[Pen]NT[Trp(7-Me)][Cit][Pen][AEF][2Nal][αMeK]K(Ac)N[Aib][dY]-NH2 (disulfide 1-6 (inferred)) [Peptide of SEQ ID NO: 347] | 0.637 nM |
| Ac-[dR][Abu]QT[Trp(7-Me)]K(Ac)C[AEF][2Nal][αMeK]K(Ac)N-NH2 (thioether 2-7 (inferred)) [Peptide of SEQ ID NO: 326] | 18.4 nM |
| B3 | 93.7 nM |
| B4 | 0.714 nM |
| B5 | 5.85 nM |
| Ac-[Pen]NT[Trp(7-Me)][Cit][Pen][AEF][2Nal][αMeK]K(Ac)N[Aib][d2Nal]-NH2 (disulfide 1-6 (inferred)) [Peptide of SEQ ID NO: 348] | 5.02 nM |
| B6 | 11.3 nM |
| Ac-[Pen]LT[Trp(7-Me)]K(Ac)[Pen][AEF][2Nal][αMeK]K(Ac)N[dL]-NH2 (disulfide 1-6 (inferred)) [Peptide of SEQ ID NO: 332] | 1.06 nM |
| Ac-[Pen]NT[Trp(7-Me)][Cit][Pen][AEF][2Nal][αMeK]K(Ac)N[Aib]A-NH2 (disulfide 1-6 (inferred)) [Peptide of SEQ ID NO: 342] | 0.664 nM |
| Ac-[Pen][Cit]T[Trp(7-Me)]K(Ac)[Pen][AEF][2Nal][αMeK]K(Ac)N[dL]-NH2 (disulfide 1-6 (inferred)) [Peptide of SEQ ID NO: 331] | 0.834 nM |
| B7 | 5.02 nM |
| B8 | 178 nM |
| B9 | 1.45 nM |
| B10 | 25.7 nM |
| B11 | 17.7 nM |

| Binder | pStat3 HTRF IC50 |
| --- | --- |
| B12 | 195 nM |
| B13 | 41.8 nM |
| Ac-[Pen]NT[Trp(7-Me)][Cit][Pen][AEF][2Nal][αMeK]K(Ac)N[Aib][dF]-NH2 (disulfide 1-6 (inferred)) [Peptide of SEQ ID NO: 346] | 0.784 nM |
| B14 | 12.5 nM |
| Ac-[Pen]GT[Trp(7-Me)]K(Ac)[Pen][AEF][2Nal][αMeK]K(Ac)N[dL]-NH2 (disulfide 1-6 (inferred)) [Peptide of SEQ ID NO: 329] | 0.77 nM |
| B15 | 1.9 nM |
| B16 | 3.39 nM |
| Ac-[dR][Abu]QT[Trp(7-Me)]K(Ac)C[AEF][2Nal][αMeK]K(Ac)N[dK][Sar]-NH2 (thioether 2-7 (inferred)) [Peptide of SEQ ID NO: 323] | 5.33 nM |
| Ac-[Pen]NT[Trp(7-Me)][Cit][Pen][AEF][2Nal][αMeK]K(Ac)N[Aib][dK]-NH2 (disulfide 1-6 (inferred)) [Peptide of SEQ ID NO: 344] | 0.724 nM |
| B17 | 23.1 nM |
| B18 | 1.04 nM |
| Ac-[Pen][Dab](Ac)T[Trp(7-Me)]K(Ac)[Pen][AEF][2Nal][αMeK]K(Ac)N[dL]-NH2 (disulfide 1-6 (inferred)) [Peptide of SEQ ID NO: 335] | 0.567 nM |
| Ac-[dR][Abu]QT[Trp(7-Me)]K(Ac)C[AEF][2Nal][αMeK]K(Ac)N[αMeF]-NH2 (thioether 2-7 (inferred)) [Peptide of SEQ ID NO: 327] | 12.7 nM |
| Ac-[Pen]NT[Trp(7-Me)][Cit][Pen][AEF][2Nal][αMeK]K(Ac)N[Sar]-NH2 (disulfide 1-6 (inferred)) [Peptide of SEQ ID NO: 339] | 6.3 nM |
| Ac-[Pen]NT[Trp(7-Me)][Cit][Pen][AEF][2Nal][αMeK]K(Ac)N[Aib]G-NH2 (disulfide 1-6 (inferred)) [Peptide of SEQ ID NO: 341] | 0.934 nM |
| Ac-[Pen]NT[Trp(7-Me)][Cit][Pen][AEF][2Nal][αMeK]K(Ac)N[Aib][dR]-NH2 (disulfide 1-6 (inferred)) [Peptide of SEQ ID NO: 345] | 0.639 nM |
| B19 | > 1 µM |
| Ac-[Pen]PT[Trp(7-Me)]K(Ac)[Pen][AEF][2Nal][αMeK]K(Ac)N[dL]-NH2 (disulfide 1-6 (inferred)) [Peptide of SEQ ID NO: 333] | 9.3 nM |
| Ac-[Pen]K(Ac)T[Trp(7-Me)]K(Ac)[Pen][AEF][2Nal][αMeK]K(Ac)N[dL]-NH2 (disulfide 1-6 (inferred)) [Peptide of SEQ ID NO: 330] | 1.38 nM |
| B20 | 0.648 nM |
